Assay results published in patent US5635615, “High affinity HIV nucleocapsid nucleic acid ligands” (NeXstar Pharmaceuticals, Inc.).

Key:
Details in all cases: tags: processed NC, 55 aa, from pBH10, gift of Agouron Pharmaceutical; label: 5'-32P
[1] = molecular target: T1, HIV-1 nucleocapsid p7 (NC) (Human immunodeficiency virus type 1 …, UniProt P03347 P03347:378-432); experiment: inhibition; about 50% inhibition of NC-stimulated annealing of con+/con- DNA, 10 nM NC
Method: (§1) This buffer was used and the concentration of each oligo was reduced keeping their action time constant to find an oligo concentration that would give less than 10% duplex formation under these conditions. The conditions in the reaction used for inhibition assay was as follows. 400 pM each DNA oligo (con+/−) was mixed with 10 nM nucleocapsid for 6 minutes at 37° C. in binding buffer containing 200 mM NaCl in a reaction volume of 30 µl. After this time, reactions were stopped by placing on ice and loaded on gel after 2 minutes. Gels were run at 250 volts for 3.5 hours. In reactions where random RNA was added as inhibitor, the concentrations range from 6500 nM to 9 nM. Where selected RNAs were used, the range was 720 nM to 0.11 nM.

[2] = molecular target: T1, HIV-1 nucleocapsid p7 (NC); experiment: filter; 10 mM NaOAc pH 5.3, 0.1 mM ZnCl2, 5 mM MgCl2, 100 mM NaCl, 37 C
Method: Binding assays were done by adding 5 μl of HIV-1 p7 nucleocapsid protein, at the appropriate concentrations (i.e., ranging from 6×10^-10 to 5×10^-8), to 45 μl of binding buffer (10 mM NaOAc (pH 5.3), 2 mM 2-mercaptoethanol, 0.1 mM ZnCl_2, 5 mM MgCl_2, 100 mM NaCl) on ice, then adding 80,000 cpm of kinased RNA (<200 fmoles) in a volume of 3 to 4 μl. This mix was incubated at 37° C. for 20 minutes. The reactions were then passed over nitrocellulose filters, which were pre-equilibrated in the same buffer, and washed five times with one milliliter each time using a 50 mM Tris-Cl pH 7.5 solution. Filters were dried and counted in cocktail. The protein used in these experiments were frozen and thawed only once. Each binding curve consisted of seven points and each point is the average of duplicates.
The dissociation constants for 12 of the 14 RNA species were determined by nitrocellulose filter binding. These experiments were carried out in duplicates. All binding curves were done using γ-^32P labeled RNA in binding buffer containing 100 mM NaCl.

[3] = molecular target: T1, HIV-1 nucleocapsid p7 (NC); experiment: inhibition; inhibition of NC-stimulated annealing of con+/con- DNA, 10 nM NC
Method: as §1

B1: 400-17 (ssRNA)
RNA: GGGAGCUCAGAAUAAACGCUCAAGUUCUGAGAACUCUCCCCAUUCUAGUGUGCUUCGACAUGAGGCCCGGAUCCGGC
- IC50 [1]: ~0.5 nM
- Kd [2]: 2 nM

B2: 400-23 (ssRNA)
RNA: GGGAGCUCAGAAUAAACGCUCAACUGAGAACUCUCCCGCUCGCAUUAUUAACCUUCGACAUGAGGCCCGGAUCCGGC
- Kd [2]: 6 nM
- Ki [3]: 3 nM
